Earlier results as cited in publication PMC2787657.
Read-outs that look alike come from different tables or passages of the source.

How the values were obtained:
[1] = target: CI-MPR cytoplasmic domain (Homo sapiens) (UniProt P11717)
[2] = target: CI-MPR cytoplasmic domain (Homo sapiens) (UniProt P11717); remark: listed apart in the source

Chain of UniProt P11717 (P11717 2328-2491): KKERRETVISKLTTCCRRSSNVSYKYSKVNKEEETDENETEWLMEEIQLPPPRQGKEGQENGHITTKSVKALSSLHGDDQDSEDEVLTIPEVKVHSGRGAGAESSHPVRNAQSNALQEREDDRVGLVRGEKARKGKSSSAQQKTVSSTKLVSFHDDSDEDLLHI

Kd [1]: 900 nM
Kd [2]: 300 nM
Substance: TIP47 (from UniProt O60664)
